{"source": "the nanobody polyreactivity screen of Harvey et al. (2022)", "data": [{"test": "yeast display, Sf9 membrane polyspecificity reagent, FACS + sequencing; frameworks hold sequencing errors", "procedure,_shortened": "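Galactose induction of a Saccharomyces cerevisiae BJ5465 synthetic nanobody display library ran 36–48 hours. The cells were then stained for 1 hour at 4 °C with 10% biotinylated, detergent-solubilized Sf9 membrane reagent, pulled down on streptavidin microbeads and FACS-sorted into low and high (top ~1%) gates on expression and reagent-binding fluorescence. Labels for polyreactivity follow the gate of origin.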", "values": [{"sequence": "QVQLVESGGGLVQAGGSLRLSCAASGYTFKAYAMGWYRQAPGKERELVAGISRSGGSTYYADSVKGRFTISRDNAKNTVYLQMNSLKPEDTAVYYCAADSFSWETVVPSVFEFDYWGQGTQVTVSS", "polyreactivity (PSR sort gate)": "low polyreactivity"}, {"sequence": "QVQLVESGGGLVQAGGSLRLSCAASGRTFNYNAMGWYRQAPGKERELVAAINYNGGSTYYADSVKGRFTISRDNAKNTVYVQMNSLKPEDTAVYYCAADYNEYDWGQGTQVTVSS", "polyreactivity (PSR sort gate)": "low polyreactivity"}, {"sequence": "QVQLVESGGGLVQAGGSLRLSCAASGITLFGYAMGWYRQAPGKERELVAAITSGGSTYYADSVKGRFTISRDNAKNTVYLQMNSLKPEDTAVYYCATSYVYYKYYSQEIYVYGFEYWGQGTQVTVSS", "polyreactivity (PSR sort gate)": "high polyreactivity"}, {"sequence": "QVQLVESRGGLVQAGGSLPLSCAASGSIFSRNALGWYRQAPGKERELVAAITWSGGSTYYADSVKGRFTISRDNAKNTVYLQMNSLKAEDTAVYYCNAKRSSRIKQLEYDYWGKGTQVTVSS", "polyreactivity (PSR sort gate)": "high polyreactivity"}, {"sequence": "QVQIVESGAGLVQAGGSLRISCAPSGLTFGYYAMGWYRQAPGKERELVAAISSSGVNTYYADSVKGRFTISRDNAKNTVYLQMNSLKPEDTAVYYCNTVPKPWYSWKYAYDYWGHGTQVTVSS", "polyreactivity (PSR sort gate)": "high polyreactivity"}, {"sequence": "QVQLVESGGGLVQAGGSLRLSCAASGRTFEGYTMGWYRQAPGKERELVAAITWRGTSTYYADSVKGRFTISRDNAKNTVYLQMNSLKPEDTAVYYCNKVGWYHNYYYWGQGTQVTVSS", "polyreactivity (PSR sort gate)": "high polyreactivity"}, {"sequence": "QVQLVESGGGLVQAGGSLRLSCAASGRIFGYTMGWYRQAPGKERELVAAISKSGGSTYYADSVKGRFTISRDNAKNTVYLQMNSLIPEDTAVYVCNKPQRILYDYWGQGSQVTVSS", "polyreactivity (PSR sort gate)": "high polyreactivity"}, {"sequence": "QVQLVESGGGLVQAGGSLRLSCAASGSTFGYYAMGWYRQAPGKERELVAVITSGGSTYYADSVKGRFTISRDNAKNTVFLQMNSLKPEDTAVYYCYARVQAVHYGYWGQGTQVTVSS", "polyreactivity (PSR sort gate)": "high polyreactivity"}, {"sequence": "QVQLVESGGGLVQAGGSLRLSCAASGSTSWSYAMGWYRQAPGKERELVAAITRTGSTNYADSVKGRFTISRDNAKNTVYLQMNSLKPEDTAVYYCVYATLRYDYWGQGTQVTVSS", "polyreactivity (PSR sort gate)": "low polyreactivity"}, {"sequence": "QVQLVESGGGLVQAGGSLRLSCAASGIIFGTNAMGWYRQAPGKERELVAYITSGGSTYADSVKGRFTISRDNAKNTFYLQMHSLKPEDTEVYYCAAYVFWAFYEYDYWGQGTQVTVSS", "polyreactivity (PSR sort gate)": "low polyreactivity"}, {"sequence": "QVQLVESGGGLVQAGGSLRLSCAASGRILGSYAMGWYRQAPGKERELVAGISWRGGRTYYADSVKGRFTISRDNAKNTVYLQLNSLKPEDTAVYYCATRSSSRKYGYWGQGTQVTVSS", "polyreactivity (PSR sort gate)": "high polyreactivity"}, {"sequence": "QVQLVESGGGLVQAGGSLRLSCAASGFTFRTNTMGWYRQAPGKERELVAAITYRGGRTYADSVKGRFTISRDNAKNTVYLQMNSLKPEDTAVYYCAARHYRGTAVDYWGQGTQVTVSS", "polyreactivity (PSR sort gate)": "high polyreactivity"}, {"sequence": "QVQLVESGGGLVQAGGSLRLSCDASGSIFGVNAMGWYRQAPGKERELVAAINNGGSTKYADSVKGRFTISRDNAKNTVYLQMNSLKPEDTAVYYCAARSWTHYFRFDYWGQGTQVTVSS", "polyreactivity (PSR sort gate)": "high polyreactivity"}, {"sequence": "QVQLVESGGGLVQAGGSLRLSCAASGSIFVIYAMGWYRQAPGKERELVAAITDSATTNYADSVKGRFTISRDNAKNTVYLQMNSLKPEDTAVYYCAAEYSSYPTAWSTYEFDYWGQGTQVTVSS", "polyreactivity (PSR sort gate)": "low polyreactivity"}, {"sequence": "QVQLVESGGGLVQAGGSLRLSCAASGLTLRRYAMGWYRQAPGKETELVAGITSGGSTYYADSVKGRFTISRDNAKNTVYLQMYSLKPEDTAVYYCAARVRKYYKPYGYWGQGTQVTVSS", "polyreactivity (PSR sort gate)": "high polyreactivity"}, {"sequence": "QVQLVESGGGLVQAGGSLRLSCAASGRIFARYAMGWYRQAPGKERELVAAISRGGGSTYYADSVKGRFTISRDNAKNTVYLQMNSLKPEDTAVYYCNRLSKQKQEFDYWGQGTQVTVSS", "polyreactivity (PSR sort gate)": "high polyreactivity"}, {"sequence": "QVQLVESGGGLVQAGGSLRLSCAASGRIFTRNAMGWYRQAPGKERELVAAISRSGGSTYYADSVKGRFTISRDNAKNTVYLQMNSLKPEDTAVYYCAKRGYDNYPFYYWGQGTQVTVSS", "polyreactivity (PSR sort gate)": "high polyreactivity"}, {"sequence": "QVQLVESGGGLFQAGGSLRLSCAASGTTLVRYAMGWYRQAPGIERELVASISYSGGSTHYADSVKGRFTISRDNAKNTVYLQMNSLKPEDTAVDYWAARPYYSWGGHYYWGQGTQVTVSS", "polyreactivity (PSR sort gate)": "high polyreactivity"}, {"sequence": "QVQLVESGGGLVQAGGSLRLSCAASGRTFSTYAMGWYRQAPGKEREMVAAISSGGGRTYYADSVKGRFTISRDYAKNTVYLQMNSLKPEDTAVYYSAADGYLRSRHGDYWGQGTQVTVSS", "polyreactivity (PSR sort gate)": "low polyreactivity"}, {"sequence": "QVQLVESGGGLVQAGGSLRLSCAGSGHIFRQYAMGWYRQAPGKERELVAAITSGGSTYYADSVKGRFTISRDNAKNTVYLQMNSLKPEDTAVYYCATRPGGDRPIGYDYWGQGTQVTVSS", "polyreactivity (PSR sort gate)": "low polyreactivity"}, {"sequence": "QVQLVESGGGLVQAGGSLRLSCAASGFTFYPYSMGWYRQAPGKERELVAAIRGSGGSTHYADSVKGRFTISRDNAKNTVYLQMNSLKPEDTAVYYCAARIRGYRQYGTYYYWGQGTQVTVSS", "polyreactivity (PSR sort gate)": "high polyreactivity"}, {"sequence": "QVQLVESGGGLVQAGGSLRLSCAASGSTFQSYAMGWYRQAPGKERELVAAISTSDTDRTYYADSVKGRFTISRDNAKNTVYLQMNSLKPEDTAVYYCNADGYSHGDWYGYWGQGTQVTVSS", "polyreactivity (PSR sort gate)": "low polyreactivity"}, {"sequence": "QVQLVESGVGLVQAGGSLRISCAASGSTFAAKSMGWYRQAPGKEREWVAVIRRGGSTTYADSVKGRFTISRDNAKNTVYLQMNSLKPEATAVYYCAASLYGKGDYWGQGTQVTVSS", "polyreactivity (PSR sort gate)": "high polyreactivity"}, {"sequence": "QVKLLESGGGLVQAGGSLRLTCAASGFIFRRYTMGWYRHAPGEEREWVAAISITGSRTYYADSVKGRFTISPDNAKNNVYLQMNSLKPEDTAVYYCAADPDKSSAGDFDYWGHGTQVTVSS", "polyreactivity (PSR sort gate)": "high polyreactivity"}, {"sequence": "QVQLVESGGGLVQAGGNLRLSCAASGFKFTSYAMGCYIQAPGKERELVAAISTSGDRTYYADSVKGRFTISRDNAKNTVYLQMNSLQPEDTAVYYSAVVRPRSVVRYDSWGQGTQVTVSS", "polyreactivity (PSR sort gate)": "high polyreactivity"}, {"sequence": "QVQLVDSGGGLVQAGGSLRLSCAASGRISSQYAMGWYRQAPGKERELVAAISTSGDRTYYADSVKGRFTISRDNAKNTVYLQMNSLKPEDTAVYYCAKDGPYTYGRDISEYWGQGTQVTVSS", "polyreactivity (PSR sort gate)": "low polyreactivity"}, {"sequence": "QVQLVESGGGLVQAGGSLRLSCAASGINFYYYTMGWYRQAPGKERELVAGITRGGRTYYADSVKGRFTISRDNAKNTVYLQMNSLKPEDTAVYYCNADPWWRFDYWGQGTQVTVSS", "polyreactivity (PSR sort gate)": "low polyreactivity"}, {"sequence": "QVQLVESGGGLVQSGGSLRLTCAASGYIFGYYTMGWYRQAPGKERELVATIRSGGSTYYADSVKGRFTISRDNAKNTVFLHMNSLKAEDTAVYYCAIRVRRISEYGYWGQGTQVTVSS", "polyreactivity (PSR sort gate)": "high polyreactivity"}, {"sequence": "QVQLVESGGGLVQAGGSLRLSCAASGRTFGGYTMGWYRQAPGKERELVAAISWGGGSTYYADSVKGRFTISRDNAKNTVYLQMNSLKPEDTAVYYCAAVSPNLRLFGYRYRYEYWGQGTQVTVSS", "polyreactivity (PSR sort gate)": "high polyreactivity"}, {"sequence": "QVQLVESGGGLVQAGGSLRLTCAASGFTFARYAMGWYRQAPGKERELVAAISSNDNTSYADSVKGRFTISRDNAKNTVYLQMNSLKPEDTAVYDCAKKRYHWYGRYYYWGQGTQLTVSS", "polyreactivity (PSR sort gate)": "high polyreactivity"}, {"sequence": "QVQLVESGGGLVEAGGSLRLSCAASGFIFSSYVMGWYRQAPGKERELVAAITSGNSTYYADSVKGRFTISRDNAKTTVYLQMNSLKPEDTAVSYCTADSYHTYYYWYDYWGQGTQVTVSS", "polyreactivity (PSR sort gate)": "low polyreactivity"}, {"sequence": "QVQLVESGGGLVQAGGSLRLSCAASGNTFYYNAMGWYRQAPGKEREFVAAITSSGGGTYYADSVKGRFTISRDNAKNTVYLQMNSLKPEDTAVYYCAADATYRKQVIFYYWGQGTQVTVSS", "polyreactivity (PSR sort gate)": "low polyreactivity"}]}]}
